Reference: paper PMC8000282, “In Silico and In Vitro Tailoring of a Chitosan Nanoformulation of a Human Metabolic Enzyme” (Pharmaceutics, 2021)

Target: the molecule itself
Assay: SEC; HiLoad Superdex 200 HR column, 20 mM Na-Hepes, 200 mM NaCl, pH 7.0, 0.7 mL/min, 4 °C; relative molecular mass of the oligomeric forms estimated from a calibration curve with standard proteins

B1: human phenylalanine hydroxylase (enzyme, UniProt P00439 1-452, looked up)
chain: MSTAVLENPGLGRKLSDFGQETSYIEDNCNQNGAISLIFSLKEEVGALAKVLRLFEENDVNLTHIESRPSRLKKDEYEFFTHLDKRSLPALTNIIKILRHDIGATVHELSRDKKKDTVPWFPRTIQELDRFANQILSYGAELDADHPGFKDPVYRARRKQFADIAYNYRHGQPIPRVEYMEEEKKTWGTVFKTLKSLYKTHACYEYNHIFPLLEKYCGFHEDNIPQLEDVSQFLQTCTGFRLRPVAGLLSSRDFLGGLAFRVFHCTQYIRHGSKPMYTPEPDICHELLGHVPLFSDRSFAQFSQEIGLASLGAPDEYIEKLATIYWFTVEFGLCKQGDSIKAYGAGLLSSFGELQYCLSEKPKLLPLELEKTAIQNYTVTEFQPLYYVAESFNDAKEKVRNFAATIPRPFSVRYDPYTQRIEVLDNTQQLKILADSINSEIGILCSALQKIK
notes: human phenylalanine hydroxylase (hPAH), expressed in E. coli as a fusion protein; a His tag is inferred from pTrcHis and the Ni resin; The tetrameric fraction from SEC was used as the fusion protein; also called hPAH; Human PAH; source: E. coli, fusion protein, purified (Ni-chelating resin, SEC)
- stoichiometry N: 4
